The results in this text go back to US20160002297A1, “THERAPEUTIC AGENTS” (NATIONAL UNIVERSITY OF SINGAPORE, priority 2013, published 2016).

Positions of bridges follow the written chain, without caps; N, C: chain ends. No end group written: not given here. *: point of attachment. FITC = O=C1OC2(c3ccc(O)cc3Oc3cc(O)ccc32)c2ccc(NC(=S)*)cc21

A word on the Kd: it is the equilibrium constant for the complex coming apart.

The target in assay [1] is T1, GRP78 (Homo sapiens, UniProt P11021). Kind of assay: Co-immunoprecipitation with GRP78. The format is binding. Here is the method: (§1) The membrane fraction of HUVECs was isolated by using Mem-PER Eukaryotic Membrane Protein Extraction Kit which was also obtained from Pierce (Rockford, Ill., USA).
1 μg antibodies of GRP78 were pre-immobilized on 20 μl protein A/G agarose beads from Santa Cruz (Santa Cruz, Calif., USA) for 1 h at room temperature. Unbound antibodies were washed out by 100 mM Tris-Hcl (pH 8.0). Then 1 μg ISM and 1 μg GRP78 (or 1 mg membrane fraction protein lysates containing GRP78) were incubated with GRP78 antibody mounted beads for 4 h at 4° C. After removing the unbound proteins, precipitates were resolved by SDS-PAGE and analyzed for the presence of ISM, GRP78 or AACs by Western blotting.
Target sequence in this assay (P11021 19-654, species assumed): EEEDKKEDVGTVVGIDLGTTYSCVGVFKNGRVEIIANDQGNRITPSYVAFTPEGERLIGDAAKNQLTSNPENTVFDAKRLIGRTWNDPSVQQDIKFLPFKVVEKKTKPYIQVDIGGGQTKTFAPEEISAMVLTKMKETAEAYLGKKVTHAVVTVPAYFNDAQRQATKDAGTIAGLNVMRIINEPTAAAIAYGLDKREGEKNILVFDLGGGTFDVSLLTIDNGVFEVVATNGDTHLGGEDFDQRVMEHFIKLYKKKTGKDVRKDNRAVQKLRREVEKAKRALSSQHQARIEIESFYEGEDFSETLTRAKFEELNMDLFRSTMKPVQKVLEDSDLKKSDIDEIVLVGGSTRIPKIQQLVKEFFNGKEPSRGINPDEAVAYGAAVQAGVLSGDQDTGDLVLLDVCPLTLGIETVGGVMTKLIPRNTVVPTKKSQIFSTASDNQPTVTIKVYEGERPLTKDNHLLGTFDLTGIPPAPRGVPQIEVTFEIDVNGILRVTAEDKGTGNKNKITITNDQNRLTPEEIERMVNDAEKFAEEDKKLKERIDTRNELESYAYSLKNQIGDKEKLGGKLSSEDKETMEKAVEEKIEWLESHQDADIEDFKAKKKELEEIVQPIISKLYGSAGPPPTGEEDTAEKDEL

Assay [2] deals with HUVECs. Kind of assay: Uptake of FITC-labelled peptide by cultured HUVECs. It is filed as cell-based, human. As to conditions: compared to FITC-labeled cRAA peptide. The text has this:
FIG. 11 FITC-RKD peptide enters cultured HUVECs likely by endocytosis;

Assay [3] has as its system 4T1 breast carcinoma cells. Briefly: FITC-RKD binding to the 4T1 breast cancer cell surface in vitro. It is filed as cell-based. The conditions noted are these: 24 h treatment. Here is the method:
FIG. 12a FITC-RKD peptide binds to cell-surface GRP78. […] 4T1 breast carcinoma cells were treated with FITC-RKD (green) 24 h. Cells were fixed and stained by Phalloidin (red) to represent the cell outline. Nuclei were counter stained by DAPI (blue).

Another assay has as its system B16 melanoma. Kind of assay: FITC-RKD targeting to subcutaneous B16 tumor in mice after intravenous delivery. The format is in vivo, mouse. As to conditions: delivered intravenously. The source says:
FIG. 9 FITC labelled cRKD (FITC-RKD) targets to subcutaneous B16 tumor in mice when delivered intravenously.
FIG. 10 FITC-RKD targets both the B16 melanoma tumor cells and tumor ECs when delivered intravenously;

Assay [4] addresses T2, GRP78, purified recombinant protein (UniProt P11021 19-654, limits assumed).
T2 construct: also called glucose-regulated protein 78 kDa; BiP
Briefly: ELISA solid phase-binding assay, GRP78 titrated on the coated ligand. Background: ELISA stands for enzyme-linked immunosorbent assay.

The subject of another assay is endothelial cells (ECs). Briefly: Apoptosis assay (Cell Death ELISA) in cultured ECs. It is filed as cell-based. The procedure: ECs (2×10^4 cells per well) in 96-well plate were starved in 2% FBS basal CSC medium for 3 h. Cells were then incubated with peptides of various concentrations and 15 ng/ml VEGF for 24 h. Apoptosis was detected by measuring cytosolic oligonucleosome-bound DNA using a Cell Death ELISA kit purchased from Roche (USA). Plots represented the mean of 3 wells of apoptotic cells in 96 well plate (±SEM).

In assay [5] the target is T1, GRP78. Briefly: ELISA solid phase-binding assay for binding affinity to GRP78. The procedure:
(§2) ELISA solid phase-binding assay was used to determine the dissociation constant between ISM or cyclic peptide and GRP78 as previously described with minor modification (Nishiuchi, Takagi et al. 2006). 96-well plates were coated with 50 μl of 10 nM cyclic peptide at 4° C. overnight. Nonspecific binding sites were blocked with 1% BSA for 2 h at room temperature. Increasing concentrations of GRP78 were incubated with immobilized cyclic peptide. After washing, the amount of bound GRP78 was quantified by ELISA. The value for Kd was calculated by GraphPad Prism software.
Target sequence in this assay (P11021 19-654, species assumed): as above

Another assay has as its system ECs. Briefly: Cell attachment (EC adhesion) assay. It is filed as cell-based. The conditions noted are these: peptide coated on plastic surface. The procedure: 96-well plates were coated with 50 μl of 1 μM ISM at 4° C. overnight. Nonspecific binding sites were blocked with 1% BSA for 2 h at 37° C. ECs were harvested and incubated in CSC basal medium containing 4 μg/ml neutralizing antibodies or control IgG for 30 min. 2[…]104 cells were plated to each well and allowed to attach for 60 min at 37° C. Attached cells were fixed by 10% formalin and stained with 0.2% crystal violet. Absorbed crystal violet was extracted by 10% acetic acid and quantified by measuring the absorbance of eluted dye at 595 nm with a microplate reader.

In assay [6] the test system is HUVECs. Kind of assay: Tube formation assay on Matrigel. It is filed as cell-based, human. Here is the method: HUVECs (1×10^4) were pre-treated with peptides of various concentrations for 30 min before being plated onto the polymerized Matrigel (Millipore, USA) in 15-well μ-slide (Ibidi, Germany). After 4-6 h, capillary network was documented using Zeiss Axiovert200 inverted microscope (Maple Grove, Minn., USA). Tube length was quantified by measuring the length of branches in representative fields using ImageJ software. Plots represented the mean of 3 wells of tubular length in 15-well μ-slide (t SEM).

For assay [7], the target named is T2, GRP78, purified recombinant protein. Briefly: ELISA solid phase-binding assay, compared with cRKD. The procedure:
as §2
Using similar ELISA method, we determined the binding affinity between kRKD peptide and GRP78 using purified recombinant GRP78 protein.

In assay [8] the target is T1, GRP78. Kind of assay: Pull down assay with HUVEC plasma membrane extract. The format is binding. Set-up: Incubation of ISM with plasma membrane extract from HUVECs; endogenous in cells; host or cells: HUVEC plasma membrane fraction. The conditions noted are these: plasma membrane extract from HUVECs.
Excerpt: His-tagged ISM and its binding partners from plasma membrane extract were pulled down by Epitope Tag Protein Isolation Kit with separation columns purchased from μMACS (Bergisch Gladbach, Germany). For searching potential binding partners of ISM, eluants were subjected to SDS-PAGE and stained with coomassie blue. Excised bands were identified by MALDI-TOF-TOF mass spectrometry analysis.
as §1
Target sequence in this assay (P11021 19-654): as the sequence (P11021 19-654, species assumed) above

The test system of the next assay is B16F10 melanoma. Kind of assay: Mouse tumorigenesis: subcutaneous B16F10 melanoma, intravenous treatment from day 0. It is filed as in vivo. Here is the method:
FIG. 4 Recombinant ISM and ISM derived cRKD peptide inhibit B16F10 tumour growth in vivo. A. Tumour growth curve in mice. X-axis represents the days after 5×10^5 tumour cell inoculation. Groups consisted of control mice receiving no treatment, recombinant ISM, cRKD peptide and its control-cyclic RAA peptide, given in six doses of 250 μg/mouse through tail vein injection on days 0, 2, 4, 6, 8, and 10 (5 mice in each group, each mice with one tumour). **: p<0.01,*: p<0.05, n=5. B. Tumour weight at the end of the experiment (14 days after tumour cell inoculation). C. Recombinant ISM and cRKD peptide inhibits B16F10 tumour growth. […] Paraffin sections of tumors from mice groups treated by control, ISM, cRAA and cRKD peptides were probed for microvessel density, tumor cell proliferation and apoptosis through immunofluoresence staining using anti-CD31 (A), anti-PCNA (B) and TUNEL staining (C) respectively. Representative photos are shown. (D) Quantification of microvessel density. Microvessel density is the number of microvessels per microscopic field. (E) Quantification of cell proliferation in tumor sample. Cell proliferation is presented as the percentage of PCNA positive cells out of the total number of cells (DAPI positive cells) in the microscopic field. (F) Quantification of apoptosis in tumor. Apoptosis is quantified as the percentage of TUNEL positive cells out of the total number of cells (DAPI positive cells) in the microscopic field. Plots represent the mean of 3 fields per section, 3 sections per tumor and 2 tumors per group (±SEM). ** P≦0.01, * P≦0.05; Adult 8-week-old female C57BL/6J mice were used in this study. Animal care and experimentation was carried out under the institutional guidelines issued by the local institutional animal care and use committee (IACUC; protocol 066/12). 5×10^5 B16F10 cells in 0.1 ml PBS were injected subcutaneously into the dorsal left flank of the mouse. Twenty mice were assigned into 4 different groups consisted of control mice receiving no treatment, recombinant ISM, cyclic RKD peptide and its peptide control-cyclic RAA peptide, given in six doses of 250 μg through tail vein injection on days 0, 2, 4, 6, 8, and 10 (5 mice in each group, each mice with one tumor). Health status of the mice was monitored over two weeks and visible tumor size were measured daily by calipers after 8 days until the end point (day 14). Tumor volume was calculated using the following formula: 0.52×length×(width)^2 mm^3, where the largest dimension of the tumor is considered as the length and the width is the perpendicular dimension. On day 14, mice were sacrificed, and their dorsal flank was opened and photographed to exam the vascularization. Then tumors were excised and weighed followed by either fixing in 4% paraformaldehyde for sectioning or snap-freezing in liquid nitrogen for further analysis. Paraffin-embedded tissue sections of 5 μm were deparaffinized by heating at 60° C. for 7 minutes before deparaffinizing in histoclear followed by the rehydration in graded series of alcohol (100%, 90%, 80%, and 70% ethanol in ddH2O) and finally in PBS for 5 minutes. Antigen retrieval was done in a bench-top 2100-Retriever according to the protocol of the manufacturer (Electron Microscopy Sciences, Hatfield, Pa.). The sections were blocked with 3% bovine serum albumin (BSA) in a humidified chamber for 1 hour at room temperature followed by overnight incubation with the anti-CD31 (Santa Cruz Biotechnology, Santa Cruz, Calif.), anti-PCNA antibody (Santa Cruz Biotechnology), anti-GRP78 antibody (Santa Cruz Biotechnology), or anti-His tag antibody (Santa Cruz Biotechnology) at 4° C. The following day, unbound antibody was washed with 1×PBS containing 0.1% Tween-20 (1×PBST) and incubated with the corresponding Alexafluor 568 secondary antibodies (Life Technologies) for 1.5 hours at 37° C. Sections were rinsed again and incubated for 10 minutes with DAPI at 1 μg/mL to visualize the DNA in the cell nucleus. […]

T2 sequence (P11021 19-654 limits assumed): as the sequence (P11021 19-654, species assumed) above

“FITC-RKD: FITC-CRKDC, disulfide bridge 1-5 ({FITC}-CRKDC; disulfide 1-5)”: the “binding to cell-surface GRP78 by co-immunoprecipitation” value in the assay with GRP78 [1] (anti-FITC antibody, plasma membrane fraction of cultured HUVECs) is “binds cell-surface GRP78”. Moreover, the “uptake by cultured HUVECs” value in the assay with HUVECs [2] is listed as “efficiently taking up by cultured HUVECs”. Further, the “binding to 4T1 cell surface” value in assay [3] is listed as “binds 4T1 breast cancer cell surface in vitro”. Moreover, in the assay on B16 melanoma, the “cell types labelled in the tumor” value is “Both tumor cells and tumor blood vessel endothelial cells are labeled”; the “labelling of xenograft melanoma” value was “preferentially labelled xenograft melanoma”.
With “Isthmin (ISM), recombinant His-tagged protein (from UniProt A2ATD1 30-454) (ligand)”, the Kd in assay [4] turned out to be 8.6 nM.
For the molecule “cRAA: Negative control mutant peptide, sequence CRAAC, disulfide bridge 1-5 (disulfide 1-5) [reference compound]”, the “pro-apoptotic activity at 1 μM” value in the assay with endothelial cells (ECs) (1 μM peptide, cultured ECs with VEGF) is reported as “almost no activity”. Moreover, the “induction of EC apoptosis (pro-apoptotic activity)” value with endothelial cells (ECs) (cultured ECs in the presence of VEGF, 24 h) was “completely destroyed the proapoptotic activity”. In the assay with GRP78 [5] (relative to cRKD), the “affinity for GRP78, fold less than cRKD” value is “about 50 fold”. Besides, the “EC attachment and adhesion” value in the assay with ECs is “lost the ability to mediate EC adhesion”. The “anti-angiogenic activity at 1 μM” value in the assay on HUVECs [6] (1 μM peptide) was “no anti-angiogenic activity”. Besides, the “inhibition of EC tube-like structure formation on Matrigel” value in the assay on HUVECs [6] (dose-dependence) is “lost this activity”.

B1: Cyclic RAA peptide (cRAA) (peptide)
peptide: CRAAC
modifications: disulfide 1-5
notes: Mutant control of cRKD, with K and D both changed to A; also called control-cyclic RAA peptide
With B1, the “fold lower affinity than cRKD” value in [7] was around 50 fold.

B2: ISM: Isthmin, a 60 kDa secreted angiogenesis inhibitor; recombinant His-tagged mouse protein (protein, UniProt A2ATD1 30-454, looked up)
Isthmin-1: SDRQDAAAGNNNLNLESDSTSETSFPLSKEAPEEHQVVHQPFPRQRFPPETGHPSLQRDGPRSFLLDLPNFPDLSKADINGQNPNIQVTIEVVDGPDSEAEKDQHPENKPSWSLPAPDWRAWWQRSLSLARTNSGDQDDKYDSTSDDSNFLSVPRGWDRPAPGHRTFETKEQPEYDSTDGEGDWSLWSVCSVTCGNGNQKRTRSCGYACIATESRTCDRPNCPGIEDTFRTAATEVSLLAGSEEFNATKLFEVDMDSCERWMSCKSEFLKKYMHKVINDLPSCPCSYPTEVAYSTADIFDRIKRKDFRWKDASGPKEKLEIYKPTARYCIRSMLSLESTTLAAQHCCYGDNMQLITRGKGAGTPNLISTEFSAELHYKVDVLPWIICKGDWSRYNEARPPNNGQKCTESPSDEDYIKQFQEAREY
modifications: His tag
notes: recombinant His-tagged mouse protein
With B2, the “ISM-GRP78 interaction by co-immunoprecipitation” value in the assay with GRP78 [1] (purified recombinant ISM and GRP78 proteins) is “confirmed the ISM-GRP78 interaction”. The Kd in the assay with GRP78 [5] (purified recombinant GRP78) stood at 8.6 nM. Besides, the “binding partner of ISM identified by pull-down” value with GRP78 [8] is reported as “identified GRP78 as a ISM binding protein”. The tumor growth entry with B16F10 melanoma (250 μg/mouse intravenous every 2 days, days 0-10, subcutaneous B16F10) is reported as “suppressed tumor growth”. In addition, the “vascularization (blood vessels supplying the tumor)” value in the assay with B16F10 melanoma (250 μg/mouse intravenous, day 14) is “reduced vascularization”. The “tumor angiogenesis, tumor cell proliferation and tumor cell apoptosis” value with B16F10 melanoma (immunofluorescence of tumor sections) was “suppress tumor angiogenesis, tumor cell proliferation and induce tumor cell apoptosis”. In the assay on B16F10 melanoma (tumor sections, compared to controls), the “apoptosis of tumor cells and tumor ECs (CD31/TUNEL double staining)” value is given as “both tumor cells as well as tumor ECs became apoptotic”. For the same molecule, the “tumor vessel density (anti-CD31 immunofluorescence)” value in the assay with B16F10 melanoma (tumor tissue sections) is reported as “obvious reduction of tumor vessel density”.
